The data set concerns the molecule itself. As to the kind of experiment: SEC; Superdex 75 10/300; 100 µL of each purified protein loaded at 0.3 mL/min, eluted over one column volume; Bio-Rad size standards; dimer to monomers. (In general: Size exclusion chromatography separates by hydrodynamic size, large species first.)

Positions count from the first letter of the chain named. Names may count otherwise.

B1: Homo sapiens NudT16 (HsNudT16) (enzyme, human)
chain: MAGARRLELGEALALGSGWRHVCHALLYAPDPGMLFGRIPLRYAILMQMRFDGRLGFPGGFVDTQDRSLEDGLNRELREELGEAAAAFRVERTDYRSSHVGSGPRVVAHFYAKRLTLEELLAVEAGATRAKDHGLEVLGLVRVPLYTLRDGVGGLPTFLENSFIGSAREQLLEALQDLGLLQSGSISGLKIPAHH
notes: carries A22V as in the Mammalian Gene Collection clone BC031215; subcloned in pNIC28-BSA4; Dimer in solution (SEC) and in the crystal; also called wild-type HsNudT16; native HsNudT16; source: E. coli CodonPlus RIPL, purified (Ni-NTA, TEV cleavage, anion exchange, SEC); not shown: His6, N-terminal, cleaved
The term stoichiometry N denotes a count of units in the complex or per binding partner. Regarding B1, the “stoichiometry N” value was determined as 2.

B2: HsNudT16 H24W (enzyme, human)
chain: B1 chain with H24W
notes: also called H24W mutant; source: E. coli CodonPlus RIPL, purified (Ni-NTA, TEV cleavage, anion exchange, SEC); not shown: His6, N-terminal, cleaved
Consider B2, for which the “stoichiometry N” value is 2.

B3: HsNudT16 F61S (enzyme, human)
chain: B1 chain with F61S
notes: also called F61S mutant; source: E. coli CodonPlus RIPL, purified (Ni-NTA, TEV cleavage, anion exchange, SEC); not shown: His6, N-terminal, cleaved
Consider B3, for which the “stoichiometry N” value is 2.

Values taken from paper PMC6459841, “Structural analyses of NudT16–ADP-ribose complexes direct rational design of mutants with improved processing of poly(ADP-ribosyl)ated proteins” (Scientific Reports, 2019).
